For the assay, the target named is recombinant erythropoietin receptor (EPOR-Fc). Briefly: SPR; Epo 3 peptide ionically bound to the chip, soluble recombinant EPOR-Fc as analyte; three independent experiments. For orientation: Surface plasmon resonance follows binding to a sensor surface in real time, without labels.
recombinant erythropoietin receptor (EPOR-Fc), sequence (P19235 25-250): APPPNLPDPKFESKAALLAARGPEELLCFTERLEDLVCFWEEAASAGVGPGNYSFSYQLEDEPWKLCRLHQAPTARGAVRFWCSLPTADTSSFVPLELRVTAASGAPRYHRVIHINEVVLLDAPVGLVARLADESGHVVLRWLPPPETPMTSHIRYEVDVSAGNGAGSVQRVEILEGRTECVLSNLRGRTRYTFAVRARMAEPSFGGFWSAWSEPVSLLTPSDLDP

A word on the Kd: it is the free concentration of one partner at which half of the binding sites on the other are occupied at equilibrium, for simple one-to-one binding. In the case of QLHVDKAVSGLRSLTTLLRA [Epo3 peptide (Epo-peptide 3)], the Kd is 4.48 nM.

The values above are taken from patent publication US20090197801A1.
